Values joined by “and” are separate entries in the source; they are usually repeats but may differ in a detail not shown here. Identical values can stand only once. Like-named read-outs stand apart in the source and are kept apart here.
How the values were obtained:
Normal uterus = assay: Immunohistochemistry: human tissues with biotinylated NEO-101; format: binding
From the text: (§1) Consequently, the positively stained “normal” tissues may have already undergone genotypic changes (“pre-cancerous”) resulting in the expression of the aberrantly glycosylated MUC5AC antigen that could lead to detection of carcinoma with NEO-101.

Normal prostate = assay: as above; format: binding
From the text: as §1

Prostate cancer = assay: as above; format: binding
From the text: as §1

Normal colon = assay: as above; format: binding
From the text: as §1

Uterus cancer = assay: as above; format: binding
From the text: as §1

Pancreas cancer = assay: as above; format: binding
From the text: as §1

Normal pancreas = assay: as above; format: binding
From the text: as §1

Colon cancer = assay: as above; format: binding
From the text: as §1

[1] = normal BALB/c mice
Method: Mouse anti-NEO-101 antibody (MAHA) responses were also measured in this study (CB08-5110). The analysis employed an ELISA based assay to detect NEO-101-specific antibodies in mouse serum.

[2] = Cytokine response in vivo, multiplex bead assay; parameters: species or system BALB/c mice; conditions: 3.5 or 14 mg/kg iv; day 3
Method: In a preliminary study designed to evaluate potential cytokine responses in vivo, normal BALB/c mice were injected intravenously with either 3.5 mg/kg or 14 mg/kg (5 mice per group) of research-grade NEO-101. Blood was collected on Study Day 3 (^72 hours post-injection) and Study Day 10. Serum was prepared (including from the pre-bleed of each mouse) and tested for the presence of mouse IL-2, IFN-γ, IL-4, and IL-5 in a multiplex bead assay using the SearchLight Array service offered by Aushon BioSystems, Inc.

SW480 Colorectal = assay: Flow cytometry tumor cell binding; format: cell-based, human
Method: (§2) See International Patent Application No. PCT/US2011/41502.
(§3) FACs data showing NEO-101 antibody binding to colon cancer and pancreatic cancer cell lines. Cells were washed and suspended in either 2 μg/ml NEO-101-FITC or isotype control antibody-FITC for 1 hour, washed and then subjected to FACS analysis. Experiments with all cell lines were repeated at least three times. […] DAPI was used to stain the nucleus. […] The staining pattern of these pancreatic and colorectal tumor cells was predominantly membrane-associated, consistent with the expression profile of MUC5AC.

LS174T Colorectal = assay: Flow cytometry tumor cell binding; format: cell-based, human
Method: as §2, §3

CFPAC-1 Pancreatic = assay: Flow cytometry tumor cell binding; format: cell-based, human
Method: as §2, §3

Colo-205 Colorectal = assay: Flow cytometry tumor cell binding; format: cell-based, human
Method: as §2, §3

CFPAC-1 cells = assay: Immunofluorescence staining with MUC5AC antibodies; format: cell-based, human; conditions: 2 μg/ml antibody
Method: LS174T and CFPAC-1 cells were grown on cover slips coated in FBS for 48 hours. Cells were then fixed with 4% PFA in PBS, washed with PBS, permeabilized with 0.2% Triton X-100, washed with PBS and blocked with 1% BSA in PBS. Cells were incubated with either 2 μg/ml NEO-101, MS-X, 2-11M1, H160, 351-450, 2-12M1, or 1-13M1. Cells were washed with PBS and then second antibody was added anti-human-FITC, anti-mouse-FITC or anti-rabbit-FITC (1:500), cells were washed and mounted on slides with DAPI hard mount. Cover slides were allowed to sit over night at 4° C. Slides were visualized with a Nikon Eclipse Ti microscope with an Andor camera.

[3] = system: colorectal cancer cell line LS174T; assay: Immunofluorescence with FITC labeled NEO-101; format: cell-based; conditions: 2 μg/ml FITC labeled antibody
Method: as §3

[4] = system: pancreatic cancer cell line AsPC-1; assay: Immunofluorescence with FITC labeled NEO-101; format: cell-based; conditions: 2 μg/ml FITC labeled antibody
Method: as §3

[5] = system: lung cancer cell line A549; assay: Immunofluorescence with FITC labeled NEO-101; format: cell-based, human; conditions: 2 μg/ml FITC labeled antibody

B1: NEO-101: Chimeric NEO-101 antibody, engineered in CHO-DG44 production cell clone 4B7; targets a variant of MUC5AC (protein)
light: QVVLTQSPVIMSASPGEKVTMTCSASSSISYMYWYQQKPGTSPKRWIYDTSKLASGVPARFSGSGSGTSYSLTISNMEAGDAATYYCHQRDSYPWTFGGGTNLEIK
heavy: QVQLKESGPDLVAPSQSLSITCTVSGFSLSKFGVNWVRQPPGKGLEWLGVIWGDGSTSYNSGLISRLSISKENSKSQVFLKLNSLQADDTATYYCVKPGGDYWGHGTSVTVSS
- Tissue staining intensity Negative (Normal uterus): (100%)
- Total Positive (Normal uterus): (0%)
- Tissue staining intensity Negative (Normal uterus; samples/total): 12/12
- Total Positive (Normal uterus; samples/total): 0/12
- Tissue staining intensity Negative (Normal prostate): (100%)
- Total Positive (Normal prostate): (0%)
- Tissue staining intensity Negative (Normal prostate; samples/total): 4/4
- Total Positive (Normal prostate; samples/total): 0/4
- Tissue staining intensity +1 (Prostate cancer): (12%)
- Tissue staining intensity +2 (Prostate cancer): (12%)
- Tissue staining intensity Negative (Prostate cancer): (75%)
- Total Positive (Prostate cancer): (25%)
- Tissue staining intensity +1 (Prostate cancer; samples/total): 5/40
- Tissue staining intensity +2 (Prostate cancer; samples/total): 5/40
- Tissue staining intensity Negative (Prostate cancer; samples/total): 30/40
- Total Positive (Prostate cancer; samples/total): 10/40
- Tissue staining intensity +2 (Normal colon): (25%)
- Tissue staining intensity Negative (Normal colon): (75%)
- Total Positive (Normal colon): (25%)
- Tissue staining intensity +2 (Normal colon; samples/total): 1/4
- Tissue staining intensity Negative (Normal colon; samples/total): 3/4
- Total Positive (Normal colon; samples/total): one of four and 1/4
- Tissue staining intensity +2 (Uterus cancer): (5%)
- Tissue staining intensity +3 (Uterus cancer): (19%)
- Tissue staining intensity Negative (Uterus cancer): (76%)
- Total Positive (Uterus cancer): (24%)
- Tissue staining intensity +2 (Uterus cancer; samples/total): 2/42
- Tissue staining intensity +3 (Uterus cancer; samples/total): 8/42
- Tissue staining intensity Negative (Uterus cancer; samples/total): 32/42
- Total Positive (Uterus cancer; samples/total): 10/42
- Tissue staining intensity +1 (Pancreas cancer): (16%)
- Tissue staining intensity +2 (Pancreas cancer): (6%)
- Tissue staining intensity +3 (Pancreas cancer): (17%)
- Tissue staining intensity +4 (Pancreas cancer): (9%)
- Tissue staining intensity Negative (Pancreas cancer): (52%)
- Tissue staining intensity +1 (Pancreas cancer; samples/total): 17/108
- Tissue staining intensity +2 (Pancreas cancer; samples/total): 7/108
- Tissue staining intensity +3 (Pancreas cancer; samples/total): 18/108
- Tissue staining intensity +4 (Pancreas cancer; samples/total): 10/108
- Tissue staining intensity Negative (Pancreas cancer; samples/total): 56/108
- Total Positive (Pancreas cancer; samples/total): 52/108
- Tissue staining intensity Negative (Normal pancreas): (100%)
- Total Positive (Normal pancreas): (0%)
- Tissue staining intensity Negative (Normal pancreas; samples/total): 3/3
- Total Positive (Normal pancreas; samples/total): 0/3
- Tissue staining intensity +1 (Colon cancer): (15%)
- Tissue staining intensity +2 (Colon cancer): (8%)
- Tissue staining intensity +4 (Colon cancer): (10%)
- Tissue staining intensity Negative (Colon cancer): (56%)
- Tissue staining intensity Weak (Colon cancer): (10%)
- Tissue staining intensity +1 (Colon cancer; samples/total): 7/48
- Tissue staining intensity +2 (Colon cancer; samples/total): 4/48
- Tissue staining intensity +4 (Colon cancer; samples/total): 5/48
- Tissue staining intensity Negative (Colon cancer; samples/total): 27/48
- Tissue staining intensity Weak (Colon cancer; samples/total): 5/48
- Total Positive (Colon cancer; samples/total): 21/48
- immunogenicity (MAHA response) [1]: only mildly immunogenic
- serum level of IFN-γ [2]: no appreciable change
- serum level of IL-2 [2]: small increase
- serum level of IL-4 [2]: no appreciable change
- serum level of IL-5 [2]: small increase
- % Cells Stained (SW480 Colorectal): 58.98%
- mfi (SW480 Colorectal): 118
- Percent positive (SW480 Colorectal; 2 μg/ml FITC antibody, FACS): 58.98%
- Percent positive (LS174T Colorectal; LS174, 2 μg/ml FITC antibody, FACS): 89.72%
- % Cells Stained (LS174T Colorectal; LS174T): 89.72%
- mfi (LS174T Colorectal; LS174T): 103
- % Cells Stained (CFPAC-1 Pancreatic; CFPAC-1): 52.56%
- mfi (CFPAC-1 Pancreatic; CFPAC-1): 59
- Percent positive (CFPAC-1 Pancreatic; CFPAC, 2 μg/ml FITC antibody, FACS): 52.56%
- % Cells Stained (Colo-205 Colorectal): 94.67%
- mfi (Colo-205 Colorectal): 175
- Percent positive (Colo-205 Colorectal; 2 μg/ml FITC antibody, FACS): 94.67%
- cells stained (CFPAC-1 cells): about 50%
- binding by immunofluorescence [3]: binds
- binding by immunofluorescence [4]: binds
- binding by immunofluorescence [5]: does not bind
